Measured values reported in patent publication US20150238641A1 (BRITISH COLUMBIA CANCER AGENCY BRANCH, published 2015).
Several values for one entry are separate records, joined by “and”; a condition that tells them apart may be missing. Equal values may be shown once. One block for each binder: values may come before it. Where no end group is shown, it is not given here. [ ]: non-standard residue; d: D form. The star is where a group is joined. DOTA = O=C(O)CN1CCN(CC(=O)O)CCN(CC(=O)*)CCN(CC(=O)O)CC1; Hyp = O=C(O)[C@@H]1C[C@@H](O)CN1; Cha = N[C@@H](CC1CCCCC1)C(=O)O; Ahx = NCCCCCC(=O)O

Legend:
[1] = molecular target: T1, human bradykinin B1 receptor (human, UniProt P46663 1-353); assay: competitive radioligand binding; hot ligand BK-ANT-ARC 4.6 nM; CHO-K1 hB1R membranes
T1 construct: whole, on cells; Assays were run on cell membrane preparations (50 ug/well), not on intact cells; HEK293T::GFP::hB1R membranes appear only in the saturation assay; also called hB1R; BDKRB1
T1 sequence (looked up): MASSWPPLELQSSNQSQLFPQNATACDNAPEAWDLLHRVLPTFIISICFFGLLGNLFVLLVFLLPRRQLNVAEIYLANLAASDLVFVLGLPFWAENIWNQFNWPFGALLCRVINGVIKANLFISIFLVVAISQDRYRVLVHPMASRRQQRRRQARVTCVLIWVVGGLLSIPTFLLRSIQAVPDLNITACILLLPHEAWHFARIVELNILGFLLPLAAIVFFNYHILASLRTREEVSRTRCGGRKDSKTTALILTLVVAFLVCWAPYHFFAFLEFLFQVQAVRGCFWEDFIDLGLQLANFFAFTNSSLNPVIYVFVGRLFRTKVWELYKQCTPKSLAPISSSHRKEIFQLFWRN
Protocol: (§1) Competitive Binding Assays: Assays were performed using 96-well MultiScreenₘₛ with glass fiber filter and PVDF support obtained from Millipore Corp, Billerica, Mass. (cat. no. MSFB N6B, lot no. R8AN42424). Wells of the MultiScreen plate were pre-soaked with 0.5% of cold Poly(ethyleneimine) (PEI) (cat. no. P3143, Sigma-Aldrich, St. Louis, Mo.) for 30 minutes. Afterward, wells were washed once with 50 mM of Tris-HCl pH 7.4. Total volume per wells was 200 μL. […] The MultiScreen plate was then incubated at 27° C. for 15 minutes with agitation at 300 rpm. The assay was stopped by suctioning the reaction solution through the bottom PVDF membrane filter and discarded. The membranes were washed 7x with 150 μL/well of cold 50 mM Tris-HCl pH 7.4. Radioactivity was counted using 1450 MicroBeta TriLux—Microplate Scintillation and Luminescence Counter (Perkin Elmer Inc., Shelton, Conn.).

[2] = molecular target: T1, human bradykinin B1 receptor; assay: average Ki of the competitive radioligand binding assays on hB1R membranes
Protocol: as §1

[3] = molecular target: T1, human bradykinin B1 receptor; assay: saturation radioligand binding, membranes of CHO-K1::hB1R cells
Protocol: (§2) Assays were done using 96-well MultiScreenHTS with glass fiber filter and PVDF support obtained from Millipore Corp, Billerica, Mass. (cat. no. MSFB N6B, lot no. R8AN42424). Wells of the MultiScreen plate were pre-soaked with 0.5% of cold Poly(ethyleneimine) (PEI) (cat. no. P3143, Sigma-Aldrich, St. Louis, Mo.) for 30 minutes. Afterward, wells were washed once with 50 mM of Tris-HCl pH 7.4. Total volume per wells was 200 μL. […] The assay buffer contained 50 mM of Tris-HCl pH 7.4 and 5 mM of MgCl₂. The Multiscreen plate was incubated at 27° C. for 15 minutes. The assay was stopped by suctioning the reaction solution through the PVDF membrane filter, and washing the filter with ice cold 50 mM Tris-HCl pH 7.4. Scintillation fluid was added to each well, and the radioactivity was measured using a MicroBeta Trilux Microplate Scintillation and Luminescence Counter (Perkin Elmer Inc., Shelton, Conn.). Graphpad Prism 5 was used to calculate the affinity constant (Kd) and the receptor concentration (Bmax).

[4] = molecular target: T1, human bradykinin B1 receptor; assay: saturation radioligand binding, membranes of HEK293T::GFP::hB1R cells
Protocol: as §2

[5] = molecular target: T1, human bradykinin B1 receptor; assay: saturation radioligand binding, CHO-K1::hB1R against HEK293T::GFP::hB1R membranes
Protocol: as §2

[6] = molecular target: T1, human bradykinin B1 receptor; assay: competitive radioligand binding; hot ligand BK-ANT-ARC 4.5 nM; CHO-K1 hB1R membranes
Protocol: as §1

[7] = molecular target: T1, human bradykinin B1 receptor; assay: assay not described at this place; competitive binding presumed
[8] = molecular target: T1, human bradykinin B1 receptor; assay: competitive radioligand binding; hot ligand BK-AG-ARC 12.5 nM; CHO-K1 hB1R membranes
Protocol: as §1

[9] = molecular target: T1, human bradykinin B1 receptor; assay: competitive radioligand binding; hot ligand BK-ANT-ARC 12.5 nM; CHO-K1 hB1R membranes
Protocol: as §1

[10] = molecular target: T1, human bradykinin B1 receptor; assay: average Ki of the competitive radioligand binding assays on hB1R membranes (single assay)
Protocol: as §1

B1: H-Lys-Arg-Pro-Pro-Gly-Phe-Ser-Pro-Leu-OH (BK-ANT, Bachem H-2582) (peptide)
peptide: H-KRPPGFSPL-OH
notes: Unlabelled control B1R antagonist bought from Bachem; also called Lys[Leu^8]-des-Arg^9-BK; [Leu^9,des-Arg^10]kallidin
Ki [1]: 0.00049 µM

B3: [3,4-prolyl-3,4-3H(N)] [Leu^9, Des-Arg^10]Kallidin (peptide)
peptide: KRPPGFSPL
modifications: also: 3,4-prolyl-3,4-3H(N) tritium label on proline
notes: Radioligand from American Radiolabeled Chemicals (ART1609) or Perkin Elmer (NET1096250UC); also called BK-ANT-ARC; BK-ANT-PE
Kd [3]: 0.000574 µM | Kd [4]: 0.00346 µM | fold lower Kd in CHO-K1::hB1R cells than in HEK293T::GFP::hB1R cells [5]: 6 fold

Binder: KRPXGXSPL (N-terminal Ga-DOTA-Ahx-; Hyp at position 4; Cha at position 6) [Peptide 10: Ga-DOTA-Ahx-Lys-Arg-Pro-Hyp-Gly-Cha-Ser-Pro-Leu]
Ki [2]: 0.0278 µM | Ki [1]: 0.0223 µM and 0.029 µM and 0.032 µM

B5: Peptide 1: D-Pra-Ahx-Lys-Arg-Pro-Hyp-Gly-Cha-Ser-Pro-(D-Phe) (peptide)
peptide: KRPXGXSPF
modifications: N-terminal D-Pra-Ahx- (D-propargylglycine, 6-aminohexanoic acid); Hyp (hydroxyproline) at position 4; Cha (beta-cyclohexylalanine) at position 6; D-Phe at position 9
notes: Agonist-derived probe
Ki [2]: 0.0322 µM | Ki [8]: 0.0109 µM | Ki [9]: 0.0746 µM

Second part, the binder after the results:

Ki [2]: 0.016 µM | Ki [1]: 0.0133 µM and 0.0171 µM and 0.0176 µM and 0.016 µM
B2: Peptide 3: Ga-DOTA-PEG2-Lys-Arg-Pro-Hyp-Gly-Cha-Ser-Pro-Leu (peptide)
peptide: KRPXGXSPL
modifications: N-terminal Ga-DOTA-PEG2- (PEG2 = 3-[2-(2-aminoethoxyl)ethoxy]propanoic acid); Hyp at position 4; Cha at position 6
notes: 68Ga-labelled in the in vivo imaging; also called Ga-68 Peptide 3

Ki [2]: 0.0114 µM | Ki [6]: 0.00863 µM and 0.0121 µM | Ki [1]: 0.0135 µM
Binder: {DOTA}-GGKRP[Hyp]G[Cha]SPL (also: Ga loaded in DOTA, 68Ga-labelled in vivo) [Peptide 8: Ga-DOTA-Gly-Gly-Lys-Arg-Pro-Hyp-Gly-Cha-Ser-Pro-Leu]

Ki [7]: 0.0124 µM | Ki [2]: 0.00255 µM | Ki [1]: 0.00247 µM and 0.00357 µM and 0.00223 µM and 0.00193 µM
Binder: {DOTA-Ahx}-KRPPGFSPL (also: Ga complex of DOTA (natGa in assays, 68Ga in vivo), also called P03083) [Peptide 4: Ga-DOTA-Ahx-Lys-Arg-Pro-Pro-Gly-Phe-Ser-Pro-Leu]

Ki [2]: 0.0254 µM | Ki [1]: 0.0197 µM and 0.0291 µM and 0.0275 µM
B4: Peptide 12: Ga-DOTA-Ahx-Lys-Arg-Pro-Hyp-Gly-Cha-Ser-Pro-(D-Phe) (peptide)
peptide: KRPXGXSPF
modifications: N-terminal Ga-DOTA-Ahx-; Hyp at position 4; Cha at position 6; D-Phe at position 9
notes: 68Ga-labelled in vivo

Ki [8]: 0.131 µM | Ki [10]: 0.131 µM
B6: Peptide 2: DTPA-Ahx-Lys-Arg-Pro-Hyp-Gly-Cha-Ser-Pro-(D-Phe) (peptide)
peptide: KRPXGXSPF
modifications: N-terminal DTPA-Ahx- (printed 'DPA-Ahx' in Table 4); Hyp at position 4; Cha at position 6; D-Phe at position 9
